We go through 8 molecules from US12285470B2, “Trim proteins and galectins cooperate and codirect autophagy and are useful in the treatment of autophagy related diseases” (UNM RAINFOREST INNOVATIONS, priority 2016, dated 2025).

In experiment [1] the target is T1, Galectin-8 (Homo sapiens, UniProt O00214).
T1 construct: made in house; host or cells: Escherichia coli SoluBL21
T1 sequence (O00214 1-359 isoform O00214-2): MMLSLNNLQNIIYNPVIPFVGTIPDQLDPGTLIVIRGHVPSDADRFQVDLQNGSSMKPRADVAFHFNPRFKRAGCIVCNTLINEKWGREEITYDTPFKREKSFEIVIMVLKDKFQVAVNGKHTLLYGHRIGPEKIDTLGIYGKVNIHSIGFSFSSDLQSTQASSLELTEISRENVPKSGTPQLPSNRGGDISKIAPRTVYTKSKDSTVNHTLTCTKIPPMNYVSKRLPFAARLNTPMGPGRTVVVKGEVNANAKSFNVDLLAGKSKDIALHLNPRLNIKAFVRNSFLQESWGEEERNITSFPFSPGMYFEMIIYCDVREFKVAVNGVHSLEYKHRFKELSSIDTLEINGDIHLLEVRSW
Put plainly: GST pulldown of in vitro translated radiolabeled TRIMs with GST-Galectin-8. It counts as binding. As to conditions: in vitro translated 35S-Myc-HA-TRIMs. The text has this: (§1) GST-fusion proteins were expressed in Escherichia coli SoluBL21 (Amsbio). […] The [^35S] labeled proteins were produced using the TNT T7 Quick Coupled Transcription/Translation System (Promega) in the presence of [^35S] L-methionine. The proteins were eluted from washed beads by boiling in SDS-PAGE gel loading buffer. separated by SDS-PAGE, and radiolabeled proteins were detected in a Fujifilm bioimaging analyzer BAS-5000 (Fuji).

In experiment [2] the target is T2, Galectin-3 (Homo sapiens, UniProt P17931).
T2 construct: made in house; host or cells: Escherichia coli SoluBL21
T2 sequence (P17931 whole entry): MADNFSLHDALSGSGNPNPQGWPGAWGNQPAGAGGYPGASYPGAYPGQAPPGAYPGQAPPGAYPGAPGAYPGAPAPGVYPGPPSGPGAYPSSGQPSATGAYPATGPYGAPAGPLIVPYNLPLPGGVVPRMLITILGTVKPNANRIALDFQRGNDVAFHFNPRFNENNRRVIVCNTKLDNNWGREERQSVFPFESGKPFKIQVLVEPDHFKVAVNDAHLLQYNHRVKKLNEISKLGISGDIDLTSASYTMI
Put plainly: GST pulldown of in vitro translated radiolabeled TRIMs with GST-Galectin-3. It counts as binding. The settings on record: in vitro translated 35S-Myc-HA-TRIMs, no ULK1 added.
Source text: as §1

Take “TRIM21: TRIM protein, Accession No. NM_003141, SEQ ID NO: 8”: the “binding to GST-Galectin-8 in GST pulldown” value in experiment [1] is reported as “did not”. Moreover, the “binding to GST-Galectin-3 in GST pulldown” value in experiment [2] is given as “did not”.

B1: TRIM49: TRIM (tripartite motif) protein tested in GST-Galectin pulldowns (protein)
chain: MNSGILQVFQGELICPLCMNYFIDPVTIDCGHSFCRPCFYLNWQDIPFLVQCSECTKSTEQINLKTNIHLKKMASLARKVSLWLFLSSEEQMCGTHRETKKIFCEVDRSLLCLLCSSSQEHRYHRHRPIEWAAEEHREKLLQKMQSLWEKACENHRNLNVETTRTRCWKDYVNLRLEAIRAEYQKMPAFHHEEEKHNLEMLKKKGKEIFHRLHLSKAKMAHRMEILRGMYEELNEMCHKPDVELLQAFGDILHRSESVLLHMPQPLNPELSAGPITGLRDRLNQFRVHITLHHEEANNDIFLYEILRSMCIGCDHQDVPYFTATPRSFLAWGVQTFTSGKYYWEVHVGDSWNWAFGVCNMYRKEKNQNEKIDGKAGLFLLGCVKNDIQCSLFTTSPLMLQYIPKPTSRVGLFLDCEAKTVSFVDVNQSSLIYTIPNCSFSPPLRPIFCCIHF
modifications: left off: small tags and cut ends
notes: TRIM (tripartite motif) protein tested in GST-Galectin pulldowns
Regarding B1, the “binding to GST-Galectin-8 in GST pulldown” value in experiment [1] is reported as “bound”. The “binding to GST-Galectin-3 in GST pulldown” value in experiment [2] is on record as “bound”.

B2: TRIM20: TRIM protein, Accession No. NM_000243, SEQ ID NO: 7 (protein, listed as Homo sapiens)
chain: MAKTPSDHLLSTLEELVPYDFEKFKFKLQNTSVQKEHSRIPRSQIQRARPVKMATLLVTYYGEEYAVQLTLQVLRAINQRLLAEELHRAAIQEYSTQENGTDDSAASSSLGENKPRSLKTPDHPEGNEGNGPRPYGGGAASLRCSQPEAGRGLSRKPLSKRREKASEGLDAQGKPRTRSPALPGGRSPGPCRALEGGQAEVRLRRNASSAGRLQGLAGGAPGQKECRPFEVYLPSGKMRPRSLEVTISTGEKAPANPEILLTLEEKTAANLDSATEPRARPTPDGGASADLKEGPGNPEHSVTGRPPDTAASPRCHAQEGDPVDGTCVRDSCSFPEAVSGHPQASGSRSPGCPRCQDSHERKSPGSLSPQPLPQCKRHLKQVQLLFCEDHDEPICLICSLSQEHQGHRVRPIEEVALEHKKKIQKQLEHLKKLRKSGEEQRSYGEEKAVSFLKQTEALKQRVQRKLEQVYYFLEQQEHFFVASLEDVGQMVGQIRKAYDTRVSQDIALLDALIGELEAKECQSEWELLQDIGDILHRAKTVPVPEKWTTPQEIKQKIQLLHQKSEFVEKSTKYFSETLRSEMEMFNVPELIGAQAHAVNVILDAETAYPNLIFSDDLKSVRLGNKWERLPDGPQRFDSCIIVLGSPSFLSGRRYWEVEVGDKTAWILGACKTSISRKGNMTLSPENGYWVVIMMKENEYQASSVPPTRLLIKEPPKRVGIFVDYRVGSISFYNVTARSHIYTFASCSFSGPLQPIFSPGTRDGGKNTAPLTICPVGGQGPD
As for B2, the “binding to GST-Galectin-8 in GST pulldown” value in experiment [1] is given as “bound”. In experiment [2], the “binding to GST-Galectin-3 in GST pulldown” value was “bound”.

B3: TRIM55: TRIM (tripartite motif) protein tested in GST-Galectin pulldowns (protein)
chain: MSASLNYKSFSKEQQTMDNLEKQLICPICLEMFTKPVVILPCQHNLCRKCASDIFQASNPYLPTRGGTTMASGGRFRCPSCRHEVVLDRHGVYGLQRNLLVENIIDIYKQESTRPEKKSDQPMCEEHEEERINIYCLNCEVPTCSLCKVFGAHKDCQVAPLTHVFQRQKSELSDGIAILVGSNDRVQGVISQLEDTCKTIEECCRKQKQELCEKFDYLYGILEERKNEMTQVITRTQEEKLEHVRALIKKYSDHLENVSKLVESGIQFMDEPEMAVFLQNAKTLLKKISEASKAFQMEKIEHGYENMNHFTVNLNREEKIIREIDFYREDEDEEEEEGGEGEKEGEGEVGGEAVEVEEVENVQTEFPGEDENPEKASELSQVELQAAPGALPVSSPEPPPALPPAADAPVTQGEVVPTGSEQTTESETPVPAAAETADPLFYPSWYKGQTRKATTNPPCTPGSEGLGQIGPPGSEDSNVRKAEVAAAAASERAAVSGKETSAPAATSQIGFEAPPLQGQAAAPASGSGADSEPARHIFSFSWLNSLNE
modifications: left off: small tags and cut ends
notes: as for B1
On to B3, for which, in experiment [1], the “binding to GST-Galectin-8 in GST pulldown” value is on record as “did not”. In addition, the “binding to GST-Galectin-3 in GST pulldown” value in experiment [2] is recorded as “did not”.

B4: TRIM 17: TRIM (tripartite motif) protein tested in GST-Galectin pulldowns (protein)
chain: MEAVELARKLQEEATCSICLDYFTDPVMTTCGHNFCRACIQLSWEKARGKKGRRKRKGSFPCPECREMSPQRNLLPNRLLTKVAEMAQQHPGLQKQDLCQEHHEPLKLFCQKDQSPICVVCRESREHRLHRVLPAEEAVQGYKLKLEEDMEYLREQITRTGNLQAREEQSLAEWQGKVKERRERIVLEFEKMNLYLVEEEQRLLQALETEEEETASRLRESVACLDRQGHSLELLLLQLEERSTQGPLQMLQDMKEPLSRKNNVSVQCPEVAPPTRPRTVCRVPGQIEVLRGFLEDVVPDATSAYPYLLLYESRQRRYLGSSPEGSGFCSKDRFVAYPCAVGQTAFSSGRHYWEVGMNITGDALWALGVCRDNVSRKDRVPKCPENGFWVVQLSKGTKYLSTFSALTPVMLMEPPSHMGIFLDFEAGEVSFYSVSDGSHLHTYSQATFPGPLQPFFCLGAPKSGQMVISTVTMWVKG
modifications: left off: small tags and cut ends
notes: as for B1
Take B4: in experiment [1], the “binding to GST-Galectin-8 in GST pulldown” value is reported as “bound”. In addition, the “binding to GST-Galectin-3 in GST pulldown” value in experiment [2] is “bound”.

B5: TRIM56: TRIM protein, Accession No. NM_030961, SEQ ID NO: 10 (protein, listed as Homo sapiens)
chain: MVSHGSSPSLLEALSSDFLACKICLEQLRAPKTLPCLHTYCQDCLAQLADGGRVRCPECRETVPVPPEGVASFKTNFFVNGLLDLVKARACGDLRAGKPACALCPLVGGTSTGGPATARCLDCADDLCQACADGHRCTRQTHTHRVVDLVGYRAGWYDEEARERQAAQCPQHPGEALRFLCQPCSQLLCRECRLDPHLDHPCLPLAEAVRARRPGLEGLLAGVDNNLVELEAARRVEKEALARLREQAARVGTQVEEAAEGVLRALLAQKQEVLGQLRAHVEAAEEAARERLAELEGREQVARAAAAFARRVLSLGREAEILSLEGAIAQRLRQLQGCPWAPGPAPCLLPQLELHPGLLDKNCHLLRLSFEEQQPQKDGGKDGAGTQGGEESQSRREDEPKTERQGGVQPQAGDGAQTPKEEKAQTTREEGAQTLEEDRAQTPHEDGGPQPHRGGRPNKKKKFKGRLKSISREPSPALGPNLDGSGLLPRPIFYCSFPTRMPGDKRSPRITGLCPFGPREILVADEQNRALKRFSLNGDYKGTVPVPEGCSPCSVAALQSAVAFSASARLYLINPNGEVQWRRALSLSQASHAVAALPSGDRVAVSVAGHVEVYNMEGSLATRFIPGGKASRGLRALVFLTTSPQGHFVGSDWQQNSVVICDGLGQVVGEYKGPGLHGCQPGSVSVDKKGYIFLTLREVNKVVILDPKGSLLGDFLTAYHGLEKPRVTTMVDGRYLVVSLSNGTIHIFRVRSPDS
As for B5, in experiment [1], the “binding to GST-Galectin-8 in GST pulldown” value is “did not”. The “binding to GST-Galectin-3 in GST pulldown” value in experiment [2] is recorded as “did not”.

B6: TRIM6: TRIM (tripartite motif) protein tested in GST-Galectin pulldowns (protein)
chain: MTSPVLVDIREEVTCPICLELLTEPLSIDCGHSFCQACITPNGRESVIGQEGERSCPVCQTSYQPGNLRPNRHLANIVRRLREVVLGPGKQLKAVLCADHGEKLQLFCQEDGKVICWLCERSQEHRGHHTFLVEEVAQEYQEKFQESLKKLKNEEQEAEKLTAFIREKKTSWKNQMEPERCRIQTEFNQLRNILDRVEQRELKKLEQEEKKGLRIIEEAENDLVHQTQSLRELISDLERRCQGSTMELLQDVSDVTERSEFWTLRKPEALPTKLRSMFRAPDLKRMLRVCRELTDVQSYWVDVTLNPHTANLNLVLAKNRRQVRFVGAKVSGPSCLEKHYDCSVLGSQHFSSGKHYWEVDVAKKTAWILGVCSNSLGPTFSFNHFAQNHSAYSRYQPQSGYWVIGLQHNHEYRAYEDSSPSLLLSMTVPPRRVGVFLDYEAGTVSFYNVTNHGFPIYTFSKYYFPTTLCPYFNPCNCVIPMTLRRPSS
modifications: left off: small tags and cut ends
notes: as for B1
B6: the “binding to GST-Galectin-8 in GST pulldown” value in experiment [1] was “bound”. Moreover, the “binding to GST-Galectin-3 in GST pulldown” value in experiment [2] is given as “bound”.

B7: TRIM22: TRIM protein, Accession No. NM_006074, SEQ ID NO: 9 (protein, listed as Homo sapiens)
chain: MDFSVKVDIEKEVTCPICLELLTEPLSLDCGHSFCQACITAKIKESVIISRGESSCPVCQTRFQPGNLRPNRHLANIVERVKEVKMSPQEGQKRDVCEHHGKKLQIFCKEDGKVICWVCELSQEHQGHQTFRINEVVKECQEKLQVALQRLIKEDQEAEKLEDDIRQERTAWKNYIQIERQKILKGFNEMRVILDNEEQRELQKLEEGEVNVLDNLAAATDQLVQQRQDASTLISDLQRRLRGSSVEMLQDVIDVMKRSESWTLKKPKSVSKKLKSVFRVPDLSGMLQVLKELTDVQYYWVDVMLNPGSATSNVAISVDQRQVKTVRTCTFKNSNPCDFSAFGVFGCQYFSSGKYYWEVDVSGKIAWILGVHSKISSLNKRKSSGFAFDPSVNYSKVYSRYRPQYGYWVIGLQNTCEYNAFEDSSSSDPKVLTLFMAVPPCRIGVFLDYEAGIVSFFNVTNHGALIYKFSGCRFSRPAYPYFNPWNCLVPMTVCPPSS
With B7, in experiment [1], the “binding to GST-Galectin-8 in GST pulldown” value is “bound”. Moreover, the “binding to GST-Galectin-3 in GST pulldown” value in experiment [2] is “bound”.
